Reference: publication PMC11188837 (mAbs, 2024)
No end group written: not given here. *: point of attachment. FITC = O=C1OC2(c3ccc(O)cc3Oc3cc(O)ccc32)c2ccc(NC(=S)*)cc21; Ahx = NCCCCCC(=O)O

Legend:
[1] = target: integrin αVβ6 ectodomain (human) (human, UniProt P06756-1;P18564-1); experiment: fluorescence polarisation
[2] = target: integrin αVβ8 ectodomain (human) (human, UniProt P06756-1;P26012-1); experiment: fluorescence polarisation
Chain of integrin αVβ8 ectodomain (human) (P06756 31-992, chain 1 of 2): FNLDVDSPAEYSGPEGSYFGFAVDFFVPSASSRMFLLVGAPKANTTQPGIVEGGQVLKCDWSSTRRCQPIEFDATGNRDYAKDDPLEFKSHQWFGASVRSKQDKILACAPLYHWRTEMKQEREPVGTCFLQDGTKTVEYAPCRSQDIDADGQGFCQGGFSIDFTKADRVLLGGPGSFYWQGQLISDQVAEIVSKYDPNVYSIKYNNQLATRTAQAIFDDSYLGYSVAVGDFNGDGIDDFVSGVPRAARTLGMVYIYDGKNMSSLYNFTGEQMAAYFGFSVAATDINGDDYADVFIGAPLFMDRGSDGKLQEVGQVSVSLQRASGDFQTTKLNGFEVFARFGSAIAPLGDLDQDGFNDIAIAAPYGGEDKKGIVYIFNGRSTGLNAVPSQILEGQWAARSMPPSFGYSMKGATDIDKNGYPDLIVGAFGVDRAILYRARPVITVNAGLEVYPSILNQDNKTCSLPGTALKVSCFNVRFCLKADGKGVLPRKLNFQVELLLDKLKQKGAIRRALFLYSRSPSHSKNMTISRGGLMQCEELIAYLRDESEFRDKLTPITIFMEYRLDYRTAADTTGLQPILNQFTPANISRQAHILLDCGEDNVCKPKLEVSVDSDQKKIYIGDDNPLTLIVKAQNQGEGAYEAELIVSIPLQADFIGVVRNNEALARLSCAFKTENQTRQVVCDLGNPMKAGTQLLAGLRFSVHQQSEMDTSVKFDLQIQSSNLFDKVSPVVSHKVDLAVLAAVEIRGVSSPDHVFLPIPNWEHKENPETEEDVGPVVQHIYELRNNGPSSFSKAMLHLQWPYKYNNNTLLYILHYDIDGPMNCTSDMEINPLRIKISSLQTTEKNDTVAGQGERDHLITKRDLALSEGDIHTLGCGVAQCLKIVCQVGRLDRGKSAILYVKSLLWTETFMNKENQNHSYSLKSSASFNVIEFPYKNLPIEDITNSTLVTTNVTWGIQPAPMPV
Chain of integrin αVβ8 ectodomain (human) (P26012 43-684, chain 2 of 2): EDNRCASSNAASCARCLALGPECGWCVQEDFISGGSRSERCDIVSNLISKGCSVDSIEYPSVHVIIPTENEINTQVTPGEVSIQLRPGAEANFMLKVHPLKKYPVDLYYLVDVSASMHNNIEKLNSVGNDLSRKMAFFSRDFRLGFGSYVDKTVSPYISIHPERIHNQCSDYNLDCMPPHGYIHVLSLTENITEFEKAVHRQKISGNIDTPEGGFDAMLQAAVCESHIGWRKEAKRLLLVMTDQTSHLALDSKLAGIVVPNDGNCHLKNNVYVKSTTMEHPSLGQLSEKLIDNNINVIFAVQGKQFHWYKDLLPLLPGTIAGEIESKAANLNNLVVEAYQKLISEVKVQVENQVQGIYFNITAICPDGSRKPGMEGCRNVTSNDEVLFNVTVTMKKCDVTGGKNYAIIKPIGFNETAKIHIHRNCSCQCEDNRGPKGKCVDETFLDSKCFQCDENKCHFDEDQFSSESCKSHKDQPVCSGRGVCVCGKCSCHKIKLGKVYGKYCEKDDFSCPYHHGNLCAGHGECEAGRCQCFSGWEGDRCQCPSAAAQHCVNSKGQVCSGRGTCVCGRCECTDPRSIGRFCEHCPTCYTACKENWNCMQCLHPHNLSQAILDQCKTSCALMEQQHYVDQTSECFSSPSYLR

Chain of integrin αVβ6 ectodomain (human) (P06756 31-992, chain 1 of 2): as the sequence (P06756 31-992, chain 1 of 2) above
Chain of integrin αVβ6 ectodomain (human) (P18564 22-709, chain 2 of 2): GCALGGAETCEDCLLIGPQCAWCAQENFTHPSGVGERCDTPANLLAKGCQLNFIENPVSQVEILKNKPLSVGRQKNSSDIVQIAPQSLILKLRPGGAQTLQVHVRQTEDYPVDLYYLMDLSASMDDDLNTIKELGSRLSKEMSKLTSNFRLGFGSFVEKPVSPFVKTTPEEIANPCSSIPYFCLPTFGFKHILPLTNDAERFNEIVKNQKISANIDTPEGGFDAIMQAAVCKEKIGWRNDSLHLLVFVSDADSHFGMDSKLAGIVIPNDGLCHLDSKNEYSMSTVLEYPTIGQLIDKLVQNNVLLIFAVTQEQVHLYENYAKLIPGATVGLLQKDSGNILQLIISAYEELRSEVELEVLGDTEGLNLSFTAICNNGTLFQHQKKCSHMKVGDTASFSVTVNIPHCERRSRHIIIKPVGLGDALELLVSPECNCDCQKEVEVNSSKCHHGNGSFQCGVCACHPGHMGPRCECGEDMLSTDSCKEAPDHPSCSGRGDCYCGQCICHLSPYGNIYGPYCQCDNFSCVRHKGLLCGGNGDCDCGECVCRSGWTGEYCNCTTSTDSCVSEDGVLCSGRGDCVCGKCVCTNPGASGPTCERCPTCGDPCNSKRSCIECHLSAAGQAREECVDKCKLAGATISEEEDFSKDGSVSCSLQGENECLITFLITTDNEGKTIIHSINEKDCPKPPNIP

{FITC-Ahx}-GRGDLGRLKK [FITC-labeled aminocaproic acid-GRGDLGRLKK peptide]
binding result [1]: binds | binding result [2]: binds
